Measurements: patent US20190160181A1 (MERSANA THERAPEUTICS, published 2019)
Several values for one entry are separate records, joined by “and”; a condition that tells them apart may be missing. Equal values may be shown once.

Legend:
[1] = biological target: T1, Human cyclized NaPi2b peptide (human); assay: ELISA on plate-coated human cyclized NaPi2b peptide, one site-specific binding fit
T1 construct: also called Human NaPi2b peptide
Protocol: Human cyclized NaPi2b peptide were generated and lyophilized covering the amino acids identified in the XMT-1535 epitope (New England Peptide, Gardner, Mass.). For the ELISA, the lyophilized NaPi2b peptide was reconstituted in DMSO. Human NaPi2b peptide was used to coat 96-Well high binding clear ELISA plates (Corning, 3369) at 1 μg/mL in sodium carbonate buffer, pH 9 to a total volume of 100 μl per well. After a 2-hour incubation, plates were washed 4 times with 100 μl per well TBS-Tween 20, blocked with 3% BSA in TBS-Tween 20 (100 μl per well) for 1 hour, and washed again. Test articles, MERS67 (Lot U0859BH and Lot U5569BL), XMT-1535, and the non-binding control (trastuzumab) were added to the wells at a dose concentration range from 100 nM to 0.002 nM using an […] 3-fold serial dilution in TBS-Tween 20 buffer at 100 μl per well. Plates were incubated for 1 hour with rocking then washed as above. […] The Optical Density (O.D.) was measured at 450 nm with a SpectraMax M5 microplate reader (Molecular Devices, Sunnyvale, Calif.). The O.D. for each treatment was graphed, and Kd calculated for each antibody with GraphPad Prism software (GraphPad Software Inc., La Jolla, Calif.) by non-linear regression using the one site-specific binding model.

human NaPi2b = biological target: T2, human NaPi2b (human, UniProt O95436 1-690); assay: immunohistochemistry, human lung tumor tissue microarray
T2 construct: whole, on cells; read as O95436; Detected by immunohistochemistry in tissue sections; also called SLC34A2; NaPiIIb
T2 sequence (looked up): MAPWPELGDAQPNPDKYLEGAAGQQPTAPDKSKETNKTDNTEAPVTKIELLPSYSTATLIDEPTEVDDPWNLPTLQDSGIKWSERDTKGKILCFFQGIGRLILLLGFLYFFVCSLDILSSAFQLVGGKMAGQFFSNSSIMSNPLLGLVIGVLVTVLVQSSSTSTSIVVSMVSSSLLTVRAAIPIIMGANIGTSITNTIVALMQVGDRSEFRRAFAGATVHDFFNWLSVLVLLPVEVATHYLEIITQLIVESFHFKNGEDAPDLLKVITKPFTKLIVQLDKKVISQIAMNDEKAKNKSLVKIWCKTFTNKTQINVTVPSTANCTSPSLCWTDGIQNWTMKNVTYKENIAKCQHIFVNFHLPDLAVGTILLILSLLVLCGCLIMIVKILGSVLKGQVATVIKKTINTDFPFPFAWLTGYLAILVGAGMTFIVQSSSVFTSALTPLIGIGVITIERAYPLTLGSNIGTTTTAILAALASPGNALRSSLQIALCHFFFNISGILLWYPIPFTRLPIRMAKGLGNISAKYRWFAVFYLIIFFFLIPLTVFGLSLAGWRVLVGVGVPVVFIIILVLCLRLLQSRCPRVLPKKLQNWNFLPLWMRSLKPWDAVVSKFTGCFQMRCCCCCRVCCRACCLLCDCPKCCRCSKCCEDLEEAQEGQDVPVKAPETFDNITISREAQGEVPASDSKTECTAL
Protocol: An immunohistochemical assay for MERS67 was established on a Leica BondRx Instrument. The assay was performed on tissue microarrays (TMA), including NSCLC and small cell lung cancer (SCLC) cell line arrays, and a NSCLC human tumor array. Tumors in the NSCLC array had previously been classified based on morphologic features only. All arrays were scored based on the H-score method.
To characterize the primary tumors further, the tumor TMA was stained with TTF-1 and p40, markers of ACA and squamous cell carcinoma (SCC), respectively. Results of this staining were compared to MERS67 staining patterns. H-Scores in the NSCLC cell line TMA ranged from 0-260, and from 0-100 in the small cell lung carcinoma (SCLC) TMA. Within the tissue microarray, 99 individual cases were evaluable. By morphologic classification 63 cases were SCC, and 23 cases were ACA. Using an arbitrary cut point of H=50, there was a statistically significant difference in the number of NaPi2b positive ACA cases (19/23) vs SCC (3/63). FIG. 13 is a box plot of the H scores derived from MERS67 IHC comparing SCC vs ACA, when these tumors were classified by morphology only.

Kd [1]: 0.256 nM and 0.104 nM | binding result (human NaPi2b): binds
B1: MERS67 (antibody, rabbit IgG1, V domains shown)
VH: QVQLVQSGAEVVKPGASVKMSCKASGYTFTGYNIHWVKQAPGQGLEWIGAIYPGNGDTSYKQKFRGRATLTADTSTSTVYMELSSLRSEDSAVYYCARGETARATFAYWGQGTLVTVSS
VL: DIQMTQSPSSLSASVGDRVTITCSASQDIGNFLNWYQQKPGKTVKVLIYYTSSLYSGVPSRFSGSGSGTDYTLTISSLQPEDFATYYCQQYSKLPLTFGQGTKLELKR
notes: XMT-1535 variable regions joined to the rabbit IgG1 constant region and the rabbit Ig kappa-b4 C region; Two lots tested: U0859BH (one-step purification) and U5696BL (two-step purification); also called MER67; chimeric NaPi2b antibody
